The source of these data is publication PMC5773694.

The target in this experiment is T1, Arabidopsis serine/threonine/tyrosine protein kinase (STYK, At2g24360) (Arabidopsis thaliana) (UniProt Q9ZQ31).
T1 sequence: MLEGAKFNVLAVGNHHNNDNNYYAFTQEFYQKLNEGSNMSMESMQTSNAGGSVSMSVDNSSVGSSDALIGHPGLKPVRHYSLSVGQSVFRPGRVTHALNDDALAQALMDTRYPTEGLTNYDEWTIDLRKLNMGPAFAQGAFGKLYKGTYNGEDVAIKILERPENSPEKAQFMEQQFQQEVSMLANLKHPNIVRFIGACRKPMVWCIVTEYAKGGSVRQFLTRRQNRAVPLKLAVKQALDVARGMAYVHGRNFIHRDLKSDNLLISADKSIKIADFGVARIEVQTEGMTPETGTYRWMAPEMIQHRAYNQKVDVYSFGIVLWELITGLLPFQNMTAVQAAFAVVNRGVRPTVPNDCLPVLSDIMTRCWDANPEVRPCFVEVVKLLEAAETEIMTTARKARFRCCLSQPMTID

B1: Arabidopsis oleosin 1 (OLE1, At4g25140), oleosin 18.5 kDa (natural protein)
chain: MADTARGTHHDIIGRDQYPMMGRDRDQYQMSGRGSDYSKSRQIAKAATAVTAGGSLLVLSSLTLVGTVIALTVATPLLVIFSPILVPALITVALLITGFLSSGGFGIAAITVFSWIYKYATGEHPQGSDKLDSARMKLGSKAQDLKDRAQYYGQQHTGGEHDRDRTRGGQHTT
Take B1: the Km of STYK for OLE1 as substrate, in vitro kinase assay is 0.966 µM.

B2: Arabidopsis caleosin 4 (CAL4, At1g70670), probable peroxygenase 4 (natural protein)
chain: MASSISTGVKFVPEEDNFLQRHVAFFDRNKDGIVYPSETFQGFRAIGCGYLLSAVASVFINIGLSSKTRPGKGFSIWFPIEVKNIHLAKHGSDSGVYDKDGRFVASKFEEIFTKHAHTHRDALTNEELKQLLKANKEPNDRKGWLAGYTEWKVLHYLCKDKNGLLHKDTVRAAYDGSLFEKLEKQRSSKTSKKHP
For B2, the Km of STYK for CAL4 as substrate, in vitro kinase assay is 0.997 µM.
